Key:
αIIbβ3 = biological target: T1, αIIbβ3 (UniProt P08514 32-1039; P05106 27-788); test: competition ELISA, displacement of biotinylated fibrinogen (6 nM) from immobilized αIIbβ3 (FIG. 4C)
T1 construct: Bought purified protein, adsorbed to microtiter wells; also called integrin αIIbβ3; GPIIbIIIa
Protocol: An estimate of the maximum absorbance value was determined for each ligand/integrin pair in the absence of competitor. The baseline absorbance value was determined by adding 5 mM EDTA to the incubation buffer.
(§1) Briefly, proteins were dialyzed into 0.1 M NaHCO₃, 0.1 M NaCl. N-hydroxysuccinimido-LC-biotin (Pierce) was dissolved at 1 mg/mL in DMSO and added to the protein at a ratio of 0.1 mg biotin per 1 mg protein. The reaction was allowed to rotate at room temperature for 2 hours. Biotinylated proteins were dialyzed into phosphate-buffered saline and their concentrations determined by absorbance at 280 nm. […] Absorbance was read at 405 nm.

αvβ3 integrin [1] = biological target: T2, αvβ3 integrin (human, UniProt P06756 31-1048; P05106 27-788); test: competition ELISA, displacement of biotinylated fibrinogen (6 nM) from immobilized αvβ3 (FIG. 4B)
T2 construct: Native detergent-extracted heterodimer, adsorbed to microtiter wells; also called integrin αvβ3; purified human αvβ3
T2 sequence (P06756 31-1048, form in doubt, chain 1 of 2): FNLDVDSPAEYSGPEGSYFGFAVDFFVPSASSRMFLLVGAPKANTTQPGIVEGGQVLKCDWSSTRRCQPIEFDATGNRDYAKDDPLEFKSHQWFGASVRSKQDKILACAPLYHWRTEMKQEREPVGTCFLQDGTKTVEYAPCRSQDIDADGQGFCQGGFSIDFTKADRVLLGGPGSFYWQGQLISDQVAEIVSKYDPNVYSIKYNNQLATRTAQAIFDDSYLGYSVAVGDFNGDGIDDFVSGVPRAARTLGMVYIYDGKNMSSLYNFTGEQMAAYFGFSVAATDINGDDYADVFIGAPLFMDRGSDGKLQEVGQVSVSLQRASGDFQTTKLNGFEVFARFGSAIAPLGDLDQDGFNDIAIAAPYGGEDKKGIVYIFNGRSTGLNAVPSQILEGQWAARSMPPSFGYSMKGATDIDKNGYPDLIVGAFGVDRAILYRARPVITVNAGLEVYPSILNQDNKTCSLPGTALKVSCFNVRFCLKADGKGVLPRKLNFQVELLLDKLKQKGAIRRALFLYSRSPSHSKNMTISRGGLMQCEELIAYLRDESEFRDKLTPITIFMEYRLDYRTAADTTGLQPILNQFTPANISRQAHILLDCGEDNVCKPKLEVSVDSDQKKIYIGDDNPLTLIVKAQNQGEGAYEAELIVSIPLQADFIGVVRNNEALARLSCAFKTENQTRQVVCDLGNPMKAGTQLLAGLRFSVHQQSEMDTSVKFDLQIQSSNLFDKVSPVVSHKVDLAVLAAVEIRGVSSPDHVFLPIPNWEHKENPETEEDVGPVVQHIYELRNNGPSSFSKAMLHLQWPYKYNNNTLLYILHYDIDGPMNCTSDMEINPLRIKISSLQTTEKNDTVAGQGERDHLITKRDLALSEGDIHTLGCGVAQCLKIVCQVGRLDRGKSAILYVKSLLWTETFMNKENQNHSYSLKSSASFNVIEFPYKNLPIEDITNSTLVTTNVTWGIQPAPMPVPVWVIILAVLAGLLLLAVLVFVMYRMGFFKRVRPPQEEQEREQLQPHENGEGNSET
T2 sequence (P05106 27-788, form in doubt, chain 2 of 2): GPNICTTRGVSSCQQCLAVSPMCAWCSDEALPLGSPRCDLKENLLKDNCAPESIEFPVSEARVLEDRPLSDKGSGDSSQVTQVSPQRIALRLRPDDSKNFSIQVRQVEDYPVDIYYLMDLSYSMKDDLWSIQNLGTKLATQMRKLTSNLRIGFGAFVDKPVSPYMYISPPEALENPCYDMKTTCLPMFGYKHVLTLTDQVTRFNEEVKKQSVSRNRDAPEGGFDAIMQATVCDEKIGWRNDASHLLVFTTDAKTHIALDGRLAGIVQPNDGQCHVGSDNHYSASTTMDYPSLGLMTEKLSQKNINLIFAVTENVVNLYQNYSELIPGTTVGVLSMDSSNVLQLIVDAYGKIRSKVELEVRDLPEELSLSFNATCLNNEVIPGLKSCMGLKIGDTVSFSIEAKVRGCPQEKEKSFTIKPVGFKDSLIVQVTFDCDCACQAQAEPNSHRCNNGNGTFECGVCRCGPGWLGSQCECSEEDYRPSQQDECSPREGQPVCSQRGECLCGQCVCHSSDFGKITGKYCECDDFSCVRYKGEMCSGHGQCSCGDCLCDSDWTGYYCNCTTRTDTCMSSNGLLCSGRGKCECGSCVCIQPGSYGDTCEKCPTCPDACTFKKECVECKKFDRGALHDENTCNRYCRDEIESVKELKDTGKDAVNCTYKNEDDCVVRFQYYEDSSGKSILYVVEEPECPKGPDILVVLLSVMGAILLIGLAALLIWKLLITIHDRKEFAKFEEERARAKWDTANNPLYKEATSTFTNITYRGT
Protocol: as §1

αvβ3 integrin [2] = biological target: T2, αvβ3 integrin; test: competition ELISA, displacement of biotinylated vitronectin (10 nM) from immobilized αvβ3 (FIG. 4A)
Protocol: as §1

Binder	IC50 (αIIbβ3) [nM]	IC50 (αvβ3 integrin [1]) [nM]	IC50 (αvβ3 integrin [2]) [nM]
Fibrinogen (ligand, also called biotinylated fibrinogen; unmodified fibrinogen) chain 1: ADSGEGDFLAEGGGVRGPRVVERHQSACKDSDWPFCSDEDWNYKCPSGCRMKGLIDEVNQDFTNRINKLKNSLFEYQKNNKDSHSLTTNIMEILRGDFSSANNRDNTYNRVSEDLRSRIEVLKRKVIEKVQHIQLLQKNVRAQLVDMKRLEVDIDIKIRSCRGSCSRALAREVDLKDYEDQQKQLEQVIAKDLLPSRDRQHLPLIKMKPVPDLVPGNFKSQLQKVPPEWKALTDMPQMRMELERPGGNEITRGGSTSYGTGSETESPRNPSSAGSWNSGSSGPGSTGNRNPGSSGTGGTATWKPGSSGPGSTGSWNSGSSGTGSTGNQNPGSPRPGSTGTWNPGSSERGSAGHWTSESSVSGSTGQWHSESGSFRPDSPGSGNARPNNPDWGTFEEVSGNVSPGTRREYHTEKLVTSKGDKELRTGKEKVTSGSTTTTRRSCSKTVTKTVIGPDGHKEVTKEVVTSEDGSDCPEAMDLGTLSGIGTLDGFRHRHPDEAAFFDTASTGKTFPGFFSPMLGEFVSETESRGSESGIFTNTKESSSHHPGIAEFPSRGKSSSYSKQFTSSTSYNRGDSTFESKSYKMADEAGSEADHEGTHSTKRGHAKSRPV chain 2: QGVNDNEEGFFSARGHRPLDKKREEAPSLRPAPPPISGGGYRARPAKAAATQKKVERKAPDAGGCLHADPDLGVLCPTGCQLQEALLQQERPIRNSVDELNNNVEAVSQTSSSSFQYMYLLKDLWQKRQKQVKDNENVVNEYSSELEKHQLYIDETVNSNIPTNLRVLRSILENLRSKIQKLESDVSAQMEYCRTPCTVSCNIPVVSGKECEEIIRKGGETSEMYLIQPDSSVKPYRVYCDMNTENGGWTVIQNRQDGSVDFGRKWDPYKQGFGNVATNTDGKNYCGLPGEYWLGNDKISQLTRMGPTELLIEMEDWKGDKVKAHYGGFTVQNEANKYQISVNKYRGTAGNALMDGASQLMGENRTMTIHNGMFFSTYDRDNDGWLTSDPRKQCSKEDGGGWWYNRCHAANPNGRYYWGGQYTWDMAKHGTDDGVVWMNWKGSWYSMRKMSMKIRPFFPQQ chain 3: YVATRDNCCILDERFGSYCPTTCGIADFLSTYQTKVDKDLQSLEDILHQVENKTSEVKQLIKAIQLTYNPDESSKPNMIDAATLKSRKMLEEIMKYEASILTHDSSIRYLQEIYNSNNQKIVNLKEKVAQLEAQCQEPCKDTVQIHDITGKDCQDIANKGAKQSGLYFIKPLKANQQFLVYCEIDGSGNGWTVFQKRLDGSVDFKKNWIQYKEGFGHLSPTGTTEFWLGNEKIHLISTQSAIPYALRVELEDWNGRTSTADYAMFKVGPEADKYRLTYAYFAGGDAGDAFDGFDFGDDPSDKFFTSHNGMQFSTWDNDNDKFEGNCAEQDGSGWWMNKCHAGHLNGVYYQGGTYSKASTPNGYDNGIIWATWKTRWYSMKKTTMKIIPFNRLTIGEGQQHHLGGAKQAGDV	15	43	–
Vitronectin (ligand, human, UniProt P04004 20-478, looked up, also called biotinylated vitronectin; unmodified vitronectin) DQESCKGRCTEGFNVDKKCQCDELCSYYQSCCTDYTAECKPQVTRGDVFTMPEDEYTVYDDGEEKNNATVHEQVGGPSLTSDLQAQSKGNPEQTPVLKPEEEAPAPEVGASKPEGIDSRPETLHPGRPQPPAEEELCSGKPFDAFTDLKNGSLFAFRGQYCYELDEKAVRPGYPKLIRDVWGIEGPIDAAFTRINCQGKTYLFKGSQYWRFEDGVLDPDYPRNISDGFDGIPDNVDAALALPAHSYSGRERVYFFKGKQYWEYQFQHQPSQEECEGSSLSAVFEHFAMMQRDSWEDIFELLFWGRTSAGTRQPQFISRDWHGVPGQVDAAMAGRIYISGMAPRPSLAKKQRFRHRNRKGYRSQRGHSRGRNQNSRRPSRATWLSLFSSEESNLGANNYDDYRMDWLVPATCEPIQSVFFFSGDKYYRVNLRTRRVDTVDPPYPRSIAQYWLGCPAPGHL	–	–	59

Reference: US20020150536A1 (published 2002)
